Experimental data taken from patent US20020160957A1.
No end group written: not given here. *: point of attachment. 125I = [125I]*

Target: cell surface binding site for EMAP II N-terminal peptides on human mononuclear phagocytes (MPs); ≈73 kDa MP surface polypeptide
Test: radioligand binding on human MPs, 4 C, one-site model

Kd: 0.19 nM
N (molecules of peptide bound per cell) (molecules of peptide bound per cell): 8300
Binder: RIGRIVTAKY(125I) [^125I-…]
